Test: yeast display, Sf9 membrane polyspecificity reagent, FACS + sequencing; frameworks hold sequencing errors
Outline: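 Nanobodies from a synthetic yeast display library (Saccharomyces cerevisiae BJ5465), induced 36–48 hours with galactose, were stained 1 hour at 4 °C with 10% biotinylated, detergent-solubilized Sf9 membrane reagent, enriched on streptavidin microbeads, then FACS-sorted. Anti-HA (expression) and streptavidin (reagent binding) fluorescence set low and high (top ~1%) gates. Polyreactivity labels come from the gate of origin. Genes were colony-PCR amplified, MiSeq 2 × 250 sequenced and filtered by CDR length.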

Row | Sequence | polyreactivity (PSR sort gate)
1 | QVQLVESGGGLVQAGGSLRLSCADSGLIFEDYAMGWYRQAPGKERELVAAIDWGGGSTYYADSVKGRFTISRDNAKNTVYLQMNSLKPEDTAVYYCAADSYFSYRYNYWGQGTQVTVSS | low polyreactivity
2 | QVQLVESGGGLVQAGGSLRLSCAASGIIFYRNAMGWYRQAPGKERELVAGITSGGSTYYADSVKGRFTISRDNAKNTVYLQMNSLIPEDTAVYYCAAYYRASQRYLQYGYWGQGTQVNVSS | high polyreactivity
3 | QVQLVESGGGLVQAGGSLRLSCAASGSIFYSNTIGWYRQAPRKERELDAAITSGGGTNYADSVKGRFTISRDNAKNTVYLQMNSLKPEDTAVYYCAAVTKTLYRSYFLMYYWGQGTQVTVSS | high polyreactivity
4 | QVQLVESGGGLVQAGGSLRLSCAASGRIFYSYAMGWYRQAPGKEREFVAVISSDGGSTYYADSVKGRFTISRDNAKNTVYLQMNSLKPEDTAVYYCNAEIDYDVYEYDYWGQGTQVTVSS | low polyreactivity
5 | QVQLVESGGGLVQAGGSLRLSCAASGFTFSKYAMGWYRQAPGKERELVAAISRSAGSTYYADSVKGRFTISRDNAKNTVYLQMNSLKPEDNAVYYCARDNPRSPSGYNYWGQGSQVTVSS | high polyreactivity
6 | QVQLVESGGGLVQAGGSLRLSCAASGFTIKWYTMGWYRPAPGKERELVAGISRRGGSTYYADSVKGRFTISRDNAKNTVYLEMNSLKPEDTAVYYCNVYSRTHYQTYTDDYWGQCTQVTVSS | high polyreactivity
7 | QVQLVESGGGLVQAGGSHRLSCAASGRIFTYNAMGWYRQAPGKERELVAVITSGGSTYYADSVKGRFTISRDNAKNTVYLQMNSLKPEDTAVYYCNAVYFRYRYNYWGQGTQVTVSS | high polyreactivity
8 | QVQLVESGGGLVQAGGSLRLSCAASGITFYSYAMGWYRQAPGKERELVAAITRGGSTYYADSVKGRFTISRDNAKNTVYLQMNSLKPEDTAVYYCAASPLGGYGYWGQGTQVTVSS | high polyreactivity
9 | QVQHVESGGGLVQAGGSLRLSCAASGSTFARYGLGWYRQAPGKERELVASLTYTGGRTYADSVKGRFTFSRDNAKNTVYLQMNSLKPEDTAVYYCAARYRLWGQGTQVTVSS | low polyreactivity
10 | QVQLVESGGGLVQAGGSLRLSCAASGFILSRYAMGWYRPAPGTERELVAAITSSGGSTYYADSVKGRFTISRDNAKNTVYLQMNSLKPEDTAVYYCAADRGRYSYNFWGQGTQVTVSS | high polyreactivity
11 | QVQLVESGGGLVQAGGSLRLSCAASGFTFKTYAMGWYRQAPGKEREFVAAISSRGGSTYYADSVKGRFTISRDNAKNTVYLQMNSLKPEDTAVYYCATATRPRDRYSRYGYWGQGTQVTVSS | high polyreactivity
12 | QVQLVESGGGLVQAGGSHRLSCAASGYIFGYNAMGWYRQAPGKEREFVAAIRFSGGSTYYADSVKGRFTISRDNAKNTVYLQMNSMKPEDTAVYYCAKRGYGHLIPIAYEYWGQGTQVTVSS | low polyreactivity
13 | QVQLVESGVGLVQAGGSLRLSCAASGRNFGTNAIGWYRPAPGKERELVAAISSSGGSTYYADSVKGRFTISRDNAKNTVYLQMNSLKPEDTAVYYCAKGWHRGVGFGYWGQGTEVTVSS | high polyreactivity
14 | QVQLVESGGGLVQAGGSLRLSCAASGFTVVSYAMGWYRQAPGKERELVAAITYSGTSTYYADSVKGRFTISRDKAKNTVYLQMNSLKPEDTAVYYCNADSSWVPIWYEYDYWGHGTQVTVSS | low polyreactivity
15 | QVQLVESGGGLDQAGGSLRLTCAASGSTFYLYDMGWYRQAPGKERELVAVISWSGGSTSYADSVKGRFTISSDNAKNTVYLHMNSLTPEDTAVYYCAAAIGVYYIDYRYLGTVEYWGQGTQVTVSS | low polyreactivity
16 | QVQLVESGGGLVQAGGSLRLSCDASGIIFKKYAMGWNRQAPGKERELVAVITRGGSTNYADSVKGRFTISRDNAKNTVYLQMNSLKPEDTAVYYCNADSGSYHGWYGGDYGGQGTQVTVSS | low polyreactivity

Row | Sequence | polyreactivity (PSR sort gate)
17 | QVQLEESGGGLVQAGGSLRLSCAASGLTFPWYAMGWYRPATGKEREFVAAITGGGSTYYADSVKGRFTISRDNAKNTVYLQMNSLKPEDTAVYYCNTDVPYGLDVSDTIDYYYWGQGTLVTVSS | low polyreactivity
18 | QVQLVESGGGLVQAGGSLRLSCAASGRIFTYYAMGWYRQAPGKERELVAGISGSGTSTYYADSVKGRFTISRDNAKNTVYLQMNSLKPEDTAVYYCAAIRRQNGLWDYYYWGQGTQVTVSS | low polyreactivity
19 | QVQLVESGGGLVQAGGSLRLSCSASGIIFDVNALGWYRQSPGKERELVADITYSVGSTSYADSVKGRFTISRDNAKNTVYLQMNSLKPEDTAVYYCAAVYSHSGGEGIKYDYWGQGTQVTVSS | low polyreactivity
20 | QVQLVESGGGLVQAGGSLRLSCAASGNTFVFYTMGWSRQAPGKERELVAAITSSGVRTSYADSVKGRFSISRDNAKNTVYLQMNSLKPEDTAVYYCAASLRASPSFGYWGQGTQVTVSS | high polyreactivity
21 | QVQHVDSGVCLVQAGGSLRLSCDASGSIFGSYAMGWYRQPPGKERELVAAISKSVGNTYYADSVKGRFTISRDNAKNTVYLQMNSLKPEVTAVYYCAAYGFYRWRGYDYWGQGTQVTVSS | high polyreactivity
22 | QVQLVESGGGLVQAGGSLRLSCAASGSIITPYAMGWYRQAPGKERELVAAISGRGGSTYYADSVKGRFTISRDNAKNTVYLQMNSLKPEDTAVFFCAAKRSGGQGQGYGYWGQGTQVTVSS | high polyreactivity
23 | QVQLVESGGGLVQAGGSLRLSCAASGITFSYYAMGWYRQAPGKEREFVAAINWDGGSTYYADSVKGRFTISRDNAKNTVYLQMNSLKPEDTAVYYCNADEFEYIYVDTLNYGDDYWGQGTQVTVSS | low polyreactivity
24 | QVQLVESGGVLVQAGGSLRLSCAASGRIFPTYAMGWYRQAPGKERELVAAISQRGGSTYYADSVKGRFTISRDNAKNTVYLQMNSLKPEDTAVYYCAASYYRQSGEYDYWGQGTQVTVSS | low polyreactivity
25 | QFQLVESGGGLVQAGGSLRLSCAASGRIFYSYAIGWYRQAPGKERELVAAINWSSVRTYYADSVKGRFTISRDNAKNTVYLQMNSLKPEDTAVYYWNAYSTEWGRYDYWGQGTQVTVSS | high polyreactivity
26 | QVQLVESGGGLVQAGGSLRLSCAASGRTFRPYAMGWYRQAPGKERELVAAISYRGGITNYADSVKGRFTISRDNAKNTVYLQMNSLKPEDTAVYYCNRYAIWVSRYSDLDYWGQGTQVTVSS | low polyreactivity
27 | QVQLVESGGGLVQAGGSLRLSCAASGRNFLSYMGWYRQAPGKERELVAISRSGTSTYYADSVKGRFTISRDNAKNTVYLQMNSLKPEDTAVYYCAAEVLRDGWWGYYYWGQGTQVTVSS | high polyreactivity
28 | QVQLVESGGGLVQAGGSLRLSCAASGSTFAGFTMRWYRQAPGKERELVAAITTRGGRTYYADSVKGRFTISRDNAKNTVYLQMNSLKPEDTAVYYCAAVSRYYAELMYYWGQGTQVTVSS | high polyreactivity
29 | QVQLVESGGGLVQAGGSLRLSCAASGSIFRRYTMGWYRQAPRKERELVAAISRVGNTNYADSVKGRFTISRDNAKNTVYLQLNSLKPEDTAVYYCAARGIGYRYTPGLNYWGQGTQVTVSS | high polyreactivity
30 | QVQLVESGGGLVQAGGSLRLSCAASGFTCYNYAMGWYRQAPGKERELVAAITSSGTSTYYADSVKGRFTISRDNAKNTVYLQMNSLKPEDTAVYYCATYVAYHRGYSTYDHWGQGSQVTVSS | low polyreactivity
31 | QVQLVESGGGLVQAGGSLRLSCAASGFIFSYCAKGRYRQAPGKERELVAAISRSGGRTYYADSVKGRYTISRDNAKNTVYLQMNSLKPEDTAVYYCAAPVSLRPIYDYWGQGTQVTVSS | high polyreactivity
32 | QVQLVESGGGLVQAGGSLRLSWAASGFTFKYNAMGLYRQAHGKERELVAAISGSGGRTYYSDSVKGRFTISRDNAKNTVYLQMNSLKPEYTAVYYCAAVYLVTLGARYDYWGQGTQVTVSS | high polyreactivity
